Laboratory results taken from article PMC10590331, “Purification and Biochemical Characterization of the DNA Binding Domain of the Nitrogenase Transcriptional Activator NifA from Gluconacetobacter diazotrophicus”.

What was measured:
Details in all cases: protein: recombinant; tags: N-terminal His-tag (pET28a, NheI/BamHI) removed with thrombin; label: 5' TAMRA on forward strand; blunt
[1] = molecular target: T1, NifA 2C-DBD (DNA binding domain with upstream Cys pair) (Gluconacetobacter diazotrophicus, UniProt A9H5T0 520-581); experiment: fluorescence anisotropy; oxidized (disulfide), no DTT; 10 mM Tris pH 8, 60 mM NaCl, 0.2 mM MgCl2 (5 mM DTT when reducing), 900 nM probe, 0-80 µM protein, 30 min at room temperature
T1 sequence: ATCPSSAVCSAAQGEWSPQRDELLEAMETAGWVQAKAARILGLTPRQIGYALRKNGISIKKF

[2] = molecular target: T2, NifA NC-DBD (DNA binding domain without Cys pair) (Gluconacetobacter diazotrophicus, UniProt A9H5T0 530-581); experiment: fluorescence anisotropy; no DTT; 10 mM Tris pH 8, 60 mM NaCl, 0.2 mM MgCl2 (5 mM DTT when reducing), 900 nM probe, 0-80 µM protein, 30 min at room temperature
T2 sequence: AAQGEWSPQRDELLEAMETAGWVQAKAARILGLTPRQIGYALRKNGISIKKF

[3] = molecular target: T1, NifA 2C-DBD (DNA binding domain with …); experiment: fluorescence anisotropy; reduced, 5 mM DTT; 10 mM Tris pH 8, 60 mM NaCl, 0.2 mM MgCl2 (5 mM DTT when reducing), 900 nM probe, 0-80 µM protein, 30 min at room temperature

B1: nifH-UAS duplex, TAMRA-labeled (dsDNA)
DNA 1: CGGTTTTGTCAGGCTTCGCACAAAGCCG
DNA 2: CGGCTTTGTGCGAAGCCTGACAAAACCG
Kd [1]: 34.5 ± 8.4 µM | Kd [2]: 20 ± 5.6 µM | Kd [3]: 31.5 ± 8.1 µM
